Fewer inactive variants are shown than the library holds.
How the values were obtained:
[1] = test system: biotinyl-Phe-oxazolone; assay: self-aminoacylation, catalytic enhancement (BFO) (fold over background); higher = more active; k-Seq, kA / k0A0; sequences stand for … in GGGAAUGGAUCCACAUCUACGAAUUC…UUCACUGCAGACUUGACGAAGCUG
In short: (§1)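 Mutagenized RNA pools with a 21-nt variable region (0.43 μM) reacted with each biotinyl-aminoacyl-oxazolone at 2–1250 μM. Reactions ran in 50 μL HEPES/NaCl/KCl/MgCl2/CaCl2 buffer with 5% acetonitrile, pH 6.9–7.0, for 90 minutes at room temperature. Streptavidin-captured RNA was quantified by triplicate qPCR and Illumina sequencing, and per-sequence fraction reacted was fit to a pseudo-first-order model with 1000 bootstraps. Catalytic enhancement is median kA divided by the uncatalyzed rate, the low-activity peak of a bimodal Gaussian fit.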

[2] = test system: biotinyl-Ile-oxazolone; assay: self-aminoacylation, catalytic enhancement (BIO) (fold over background); higher = more active; k-Seq, kA / k0A0; sequences stand for … in GGGAAUGGAUCCACAUCUACGAAUUC…UUCACUGCAGACUUGACGAAGCUG
In short: as §1

[3] = test system: biotinyl-Met-oxazolone; assay: self-aminoacylation, catalytic enhancement (BMO) (fold over background); higher = more active; k-Seq, kA / k0A0; sequences stand for … in GGGAAUGGAUCCACAUCUACGAAUUC…UUCACUGCAGACUUGACGAAGCUG
In short: as §1

[4] = test system: biotinyl-Val-oxazolone; assay: self-aminoacylation, catalytic enhancement (BVO) (fold over background); higher = more active; k-Seq, kA / k0A0; sequences stand for … in GGGAAUGGAUCCACAUCUACGAAUUC…UUCACUGCAGACUUGACGAAGCUG
In short: as §1

[5] = test system: biotinyl-Leu-oxazolone; assay: self-aminoacylation, catalytic enhancement (BLO) (fold over background); higher = more active; k-Seq, kA / k0A0; sequences stand for … in GGGAAUGGAUCCACAUCUACGAAUUC…UUCACUGCAGACUUGACGAAGCUG
In short: as §1

[6] = test system: biotinyl-Trp-oxazolone; assay: self-aminoacylation, catalytic enhancement (BWO) (fold over background); higher = more active; k-Seq, kA / k0A0; sequences stand for … in GGGAAUGGAUCCACAUCUACGAAUUC…UUCACUGCAGACUUGACGAAGCUG
In short: as §1

Sequence	self-aminoacylation [1]	self-aminoacylation [2]	self-aminoacylation [3]	self-aminoacylation [4]	self-aminoacylation [5]	self-aminoacylation [6]
ACGUUUGCUAAUUGUCGCAAG [Fam3.1 aminoacylation ribozyme variant]	1.96	1.6	1.81	1.77	2.06	2.66
ACUACCCUAGUCAUCGAGUGA [Fam2.1 aminoacylation ribozyme variant]	8.71	2.95	4.62	2.64	5.39	5.01
ACUACCCUGGUCAGCGAGUGA [Fam2.1 aminoacylation ribozyme variant]	38.3	4.51	6.39	4.6	6.39	6.58
ACUACCCUGGUCAUCGGGUGA [Fam2.1 aminoacylation ribozyme variant]	293	20.6	48	20.9	50.1	57.6
ACUACCCUGUUCAUCGAGUGA [Fam2.1 aminoacylation ribozyme variant]	6.68	2.28	3.17	2.33	3.27	5.04
ACUACUCUGGUCAUCGAGUGA [Fam2.1 aminoacylation ribozyme variant]	36.2	4.09	5.17	3.45	8.12	7.79
ACUCACCCAGGUCAUCGGGUG [Fam2.2 aminoacylation ribozyme variant]	26.2	4	4.37	4.51	5.25	4.81
ACUCACCUAGGUCAUCCGGUG [Fam2.2 aminoacylation ribozyme variant]	39.5	4.6	6.22	5.7	7.63	7.81
ACUCACCUAGGUCAUCGAGUG [Fam2.2 aminoacylation ribozyme variant]	7.77	2.85	3.27	2.86	4.67	2.72
ACUCACCUAGGUCAUCGGGUA [Fam2.2 aminoacylation ribozyme variant]	157	11.4	19.9	10.1	27	14.9
ACUCACCUAGGUCCUCGGGUG [Fam2.2 aminoacylation ribozyme variant]	37.1	5.2	5.36	4.46	5.78	8.03
ACUCACCUAGGUCGUCGGGUG [Fam2.2 aminoacylation ribozyme variant]	6.16	2.58	2.56	2.4	2.25	3.42
ACUCACCUAGGUGAUCGGGUG [Fam2.2 aminoacylation ribozyme variant]	39.2	5.05	5.21	4.87	6.01	8.44
ACUCACCUAUGUCAUCGGGUG [Fam2.2 aminoacylation ribozyme variant]	33.4	4.11	5.4	4.18	6.52	6.08
ACUCACCUUGGUCAUCGGGUG [Fam2.2 aminoacylation ribozyme variant]	37.8	4.9	6.92	5.78	7.85	9.04
ACUCCCCUAGGUCAUCGGGUG [Fam2.2 aminoacylation ribozyme variant]	101	8.61	13.7	10.3	18.6	13.8
ACUCUCCUAGGUCAUCGGGUG [Fam2.2 aminoacylation ribozyme variant]	49.4	5.49	8.52	5.61	10.2	8.31
ACUGACCUAGGUCAUCGGGUG [Fam2.2 aminoacylation ribozyme variant]	32.9	4.97	6.84	5	7.25	7.32
ACUUACCUAGGUCAUCGGGUG [Fam2.2 aminoacylation ribozyme variant]	48.7	7.28	10.6	5.61	10.8	10.1
AGCACCCUGGUCAUCGAGUGA [Fam2.1 aminoacylation ribozyme variant]	6.9	4.58	8.03	3.89	6.84	9.35
AGGACCCUGGUCAUCGAGUGA [Fam2.1 aminoacylation ribozyme variant]	36.7	4.59	10.5	5.05	10.9	10.7
AGGAUUGCUAAUAGUCGCAAG [Fam3.1 aminoacylation ribozyme variant]	2.92	1.62	1.52	1.88	1.66	2.52
AGGUUCGCUAAUAGUCGCAAG [Fam3.1 aminoacylation ribozyme variant]	12.3	2.82	2.81	2.34	3.26	4.12
AGGUUUGCUAAUAGCCGCAAG [Fam3.1 aminoacylation ribozyme variant]	4.78	1.2	1.15	0.935	1.11	2.25
AGGUUUGCUAAUAGUAGCAAG [Fam3.1 aminoacylation ribozyme variant]	1.05	1.49	1.41	1.22	1.43	2.18
AGGUUUGCUAAUAGUCCCAAG [Fam3.1 aminoacylation ribozyme variant]	4.38	0.901	0.915	0.872	0.779	1.97

Reference: the supplement of paper PMC9233669
